These results are taken from US20170240596A1 (CURATORS OF THE UNIVERSITY OF MISSOURI, published 2017).

No end group written: not given here.

Assay [1] has as its target T1, Prostate-specific membrane antigen (PSMA) (human, UniProt Q04609 1-750).
T1 construct: whole, on cells; Never tested as an isolated protein against single peptides; also called NAAG peptidase; glutamate carboxypeptidase II (GCPII)
The experiment in a line: competitive inhibition on LNCaP cells, peptide pre-incubation at 100 uM then phage, phage titering.
Method: Competitive inhibition assay. Competitive binding inhibition between selected phages and their encoded peptides was examined in this study. […] The bound phages were recovered and titered as described above.
It was first evaluated whether these phages bind to LNCaP cells via specific interaction with their encoding peptides. LNCaP cells were pre-incubated with the encoding peptides, followed by washing and incubation with the corresponding phages. The bound phages were then eluted and titered.

In assay [2] the target is T1, Prostate-specific membrane antigen …. Description: apparent Kd, flow cytometry, FAM-labeled peptide on PSMA-positive LNCaP cells, 4 C, one-site fit. On the technique in general: A flow cytometer gives signals particle by particle.
From the text: Flow cytometry analysis. Cells were detached using non-enzymatic cell dissociation solution and suspended in PBS (pH=7.4) at a concentration of 1×10⁶ cells/mL. […] The cells were then washed with PBS for three times and subjected to fluorescence analysis on a FACSCalibur flow cytometer (BD Biosciences, Franklin Lakes, N.J.).
Apparent equilibrium dissociation constant (Kd) of the peptides. […] Flow cytometry was employed to determine the percentage of cells that were labeled with the peptides. The apparent Kd values were calculated by fitting to a one-site specific binding model using GraphPad Prism 5.
Assay [3] has the same target. The experiment in a line: apparent Kd by flow cytometry on C4-2 cells; weaker than GTI.

T1 sequence (Q04609 whole entry): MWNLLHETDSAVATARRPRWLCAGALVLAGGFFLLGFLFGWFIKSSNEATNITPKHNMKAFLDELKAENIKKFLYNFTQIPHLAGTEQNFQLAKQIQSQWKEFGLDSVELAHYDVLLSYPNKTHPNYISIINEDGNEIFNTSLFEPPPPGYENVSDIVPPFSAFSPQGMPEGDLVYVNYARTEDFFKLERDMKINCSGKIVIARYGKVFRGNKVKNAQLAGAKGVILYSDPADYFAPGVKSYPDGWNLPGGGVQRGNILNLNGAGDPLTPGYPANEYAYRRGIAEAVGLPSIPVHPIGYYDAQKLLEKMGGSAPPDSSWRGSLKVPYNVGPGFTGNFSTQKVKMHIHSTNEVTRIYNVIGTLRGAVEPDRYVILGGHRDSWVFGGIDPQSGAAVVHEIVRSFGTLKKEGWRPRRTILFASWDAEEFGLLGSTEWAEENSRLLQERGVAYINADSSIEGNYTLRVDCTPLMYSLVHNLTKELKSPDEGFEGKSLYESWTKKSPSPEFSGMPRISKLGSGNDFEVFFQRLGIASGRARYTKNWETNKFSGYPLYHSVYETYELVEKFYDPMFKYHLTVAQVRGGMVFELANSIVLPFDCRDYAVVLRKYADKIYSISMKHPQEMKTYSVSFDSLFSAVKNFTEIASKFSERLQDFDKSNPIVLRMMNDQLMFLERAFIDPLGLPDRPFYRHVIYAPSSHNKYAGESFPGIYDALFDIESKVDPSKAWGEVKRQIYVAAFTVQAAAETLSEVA

With TGHLYPTRMEIQ [TGH synthetic peptide TGHLYPTRMEIQ], the binding result in assay [1] is given as “binds”.

With YVNSHSILGYTG [YVN synthetic peptide YVNSHSILGYTG], the binding result in assay [1] is on record as “binds”.

Consider HSDNHYRPADKL (also: FAM label, position not given here) [FAM-labeled HSD peptide HSDNHYRPADKL], for which the Kd in assay [2] was found to be 12.8 µM.

As to YVNSHSILGYTG (also: FAM label, position not given here) [FAM-labeled YVN peptide YVNSHSILGYTG], the Kd in assay [2] was determined as 9.34 µM.

Take TGHLYPTRMEIQ (also: FAM label, position not given here) [FAM-labeled TGH peptide TGHLYPTRMEIQ]: the Kd in assay [2] worked out at 8.01 µM.

B1: FAM-labeled scrambled GTI peptide SGYQTFYWPGPI (peptide)
peptide: SGYQTFYWPGPI
modifications: also: FAM label, position not given here
notes: Random permutation of the GTI peptide; also called scrambled peptide; scrambled control
Turning to B1, in assay [3], the binding result is listed as “binds”.
